Where no end group is shown, it is not given here. [ ]: non-standard residue; d: D form. pY = N[C@@H](Cc1ccc(OP(=O)(O)O)cc1)C(=O)O
Assays:
[1] = target: reduced carboxyamidomethylated and maleylated-lysozyme (not phosphorylated) (Gallus gallus (Chicken)) (UniProt P00698)
[2] = target: [^32 P]reduced carboxyamidomethylated and maleylated-lysozyme (Gallus gallus (Chicken)) (UniProt P00698)
[3] = target: T1, D61A activated mutant of SHP-2 (human)
T1 sequence: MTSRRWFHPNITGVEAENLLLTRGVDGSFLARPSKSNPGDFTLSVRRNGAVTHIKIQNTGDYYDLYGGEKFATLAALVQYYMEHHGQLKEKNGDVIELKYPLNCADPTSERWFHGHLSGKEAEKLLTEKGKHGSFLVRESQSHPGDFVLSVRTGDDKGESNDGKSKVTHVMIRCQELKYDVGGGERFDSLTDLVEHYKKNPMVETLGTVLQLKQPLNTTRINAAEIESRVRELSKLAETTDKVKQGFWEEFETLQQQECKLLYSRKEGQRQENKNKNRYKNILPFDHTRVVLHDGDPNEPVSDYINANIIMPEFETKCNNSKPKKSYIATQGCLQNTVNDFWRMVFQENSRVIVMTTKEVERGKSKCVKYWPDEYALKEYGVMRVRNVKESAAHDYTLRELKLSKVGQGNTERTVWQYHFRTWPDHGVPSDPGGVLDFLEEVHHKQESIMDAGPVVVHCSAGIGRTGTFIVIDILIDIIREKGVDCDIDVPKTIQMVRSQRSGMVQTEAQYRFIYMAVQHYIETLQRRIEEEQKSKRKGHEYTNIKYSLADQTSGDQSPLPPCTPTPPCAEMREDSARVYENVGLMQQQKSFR

Molecule: recombinant full length Src kinase (enzyme)
- phosphorylation of RCM-lysozyme with [γ-^32 P] ATP [1]: 2000 cpm/pmol

Molecule: E76A activated mutant of SHP-2 (enzyme)
- phosphatase activity ([32P] phosphate released from [^32 P]RCM-lysozyme) (pmol/min-pmol) [2]: 100

B1: SHPS-1 phosphotyrosine peptide DIT[pY]…[pY]ASIQTS-NH2 (peptide)
peptide: DIT[pY]ADLNLPKGKKPAPQAAEPNNHTE[pY]ASIQTS-NH2
modifications: N-terminus assumed
SMILES: CC[C@H](C)[C@H](NC(=O)[C@H](CO)NC(=O)[C@H](C)NC(=O)[C@H](Cc1ccc(OP(=O)(O)O)cc1)NC(=O)[C@H](CCC(=O)O)NC(=O)[C@@H](NC(=O)[C@H](Cc1c[nH]cn1)NC(=O)[C@H](CC(N)=O)NC(=O)[C@H](CC(N)=O)NC(=O)[C@@H]1CCCN1C(=O)[C@H](CCC(=O)O)NC(=O)[C@H](C)NC(=O)[C@H](C)NC(=O)[C@H](CCC(N)=O)NC(=O)[C@@H]1CCCN1C(=O)[C@H](C)NC(=O)[C@@H]1CCCN1C(=O)[C@H](CCCCN)NC(=O)[C@H](CCCCN)NC(=O)CNC(=O)[C@H](CCCCN)NC(=O)[C@@H]1CCCN1C(=O)[C@H](CC(C)C)NC(=O)[C@H](CC(N)=O)NC(=O)[C@H](CC(C)C)NC(=O)[C@H](CC(=O)O)NC(=O)[C@H](C)NC(=O)[C@H](Cc1ccc(OP(=O)(O)O)cc1)NC(=O)[C@@H](NC(=O)[C@@H](NC(=O)[C@@H](N)CC(=O)O)[C@@H](C)CC)[C@@H](C)O)[C@@H](C)O)C(=O)N[C@@H](CCC(N)=O)C(=O)N[C@H](C(=O)N[C@@H](CO)C(N)=O)[C@@H](C)O
- activation of phosphatase activity on [^32 P]RCM-lysozyme by the phosphotyrosine peptide (fold higher than wildtype SHP-2) [3]: 5

From patent publication US6156551
